# In patent publication US20240026407A1, “MODIFICATION OF SAPONINS” (GLAXOSMITHKLINE BIOLOGICALS SA, priority 2020, published 2024):
# B1: 989 (protein, listed as Rhodothermus marinus)
# chain: MVLLFLGGAKEGAAQSNQALQVASLRTEYLVNPIGIEVRQPRLSWQLQSDRRDVRQVAYQIQVATSREALARGRDLVWDSGRVESDQSVFVPYGGPALQRRQRYYWRVRVWDNHGRSSAWSEPAFWEMGLLSPDEWRAQWITYNWEEDTSQPQPAPMLRRTFRVEGRVRRARLYITSLGLYEAHLNGRRVGDQLFTPGWTSYHHRLQYQTYDVTDLLRPGENALGVILGDGWYRGYLTWSVRRNVYGDRLALLAQLEITYEDGRTQVVTSDPDWKATTGPIRMSDIYMGEIYDARLEKEGWTEPGYDDSDWRGVRVLEHPKDILIAPIGPPVRRIQEIRPVAILYTPAGDTVVDMGQNMVGWVRLRVRGPAGTVVTLRHAEVLDKHGNFYTENLRRARQTDQYILKGEGEEVFEPHFTFHGFRYVAVSGYPGELTPEAITGIVIHSAFEPTGTWVSSDSLLNRLQLNIQWGMKGNFLDVPTDCPQRDERLGWTGDAQVFARTAMFNGLVGGFFTKWLGDVAADQSPEGAVPHVVPNVLPSFAGRFPGGATGWADAAVVIPWTMYQVYGDRRILEVQYPSMKAWVEYMRREAGDDLIWDTGFHFGDWLAFVPEENVRRAYPGATTGRDFLATAYFAYSTRLLAQAAEVIGKTDEARHYRQLYEAIREAFNREFVTPNGRVAQATQTAYTLAIQFDLLPEHLRAEAGRRLAEDVRAHNMHLTTGFLGTPQLLHALSNTGQLDVAYTLLRQTTYPSWLYQVKMGATTMWERWDSIKPDSTFQDPSMNSFNHYAYGSVGDWMYRVVAGIDTETPGYQRLRIAPQPGGGLKWVQARYHSLYGEVASSWELVDPQTFVLEVTIPPNTTATVRLPGAQLASVQEGRQPVQSAAGVHRAYQDGADVVVEVGSGTYRFTYSPSAELVRRIQTQPEVGQPVTMSF
# B2: 1041 (protein)
# chain: MRAIRLRTEYLTEPLGLGITAPRLYWNADGGLRQTAYQVVARRGGETVWDTGKVASSRMTHVRYEGVPLGSRDRVDWSVVLWDEAGAAGPPAESWFELGLLDPADWTAEWITGDYTPEPDVRYPVDHFRRDFRVREPVLAARLYITAAGVYEAVLNGEPVSEARLGPGATDYRHRLHYQTFDVTSLLAADNVLEVRLADGWYRGSLGAFGATHVFGRETRLLAQLELTYPDGSTETVGSDERFRWSDDGPVRFADLQDGEVYDARLAPSYSGHARITTETMIPTAADNVPVTEHERFPARLLTTPSGARVLDFGQNLAGFVAFTVSGRAGQRLTLRLGEILDGAGEFTQRNFQLRKPVHEFGRDVEILLLTGQESEIKGELQPTPKQEVVFTASGGTDHYVTRFAVFGFRYALVETDLDIDPADFEAIAVYSAMEQTGTCVTSHEGVNRFLENTRWSMKGNFLDVPTDCPTRERLGWTGDAQVFFDTAAYLMDVGAFFRKWLRDVRDGQLADGKLSAVIPYNGTSMLYDTTGGSVGWADAVVLIPYRYWKRYGDESILRDCYDAMRRYAMFMITNAGPLDPEAAADNPHARYLYEKGVHLGDWLEAAEFRDPSPGRTPMPEEATAYLHYTMTHLAEIATVLGETADADLFAEYAQGAKAAYTHQFLRDGTLDTDRQAKLVRPLALGLADGDVKRRLEDRLVQAVKNRDFHVNTGFLSTPFVLPTLTAAGHPEIAYRMLDNEDAPSWLAEVKAGATTVWEDWEGKESRNHYSPGAVCQWLFDTVAGLRVTGENHFTIAPVPGGSLTSAQARYTSVYGTVASSWTRTGTDLHLTVTLPPNTTADVRLPNGTEHVVGPGTHEYTA
# modifications: Frankia inefficax
# B3: 1039 (protein, listed as Lactobacillus acidophilus)
# chain: MKITNILVNQMEHPLGFDLSNLRITFELTEMENIIGNVYKNISVGKVESEQPIYFEPDELYENNAFKINMELEPRTKYWVKIGVRNDNEVTSSNTWFETGKMDEKFYGKWITNKKDVENTLFKKDFELANKQIKSARLYSTTLGVYEVDLNGVKVGNEFLAPGFTNYDKIVQLQTYDVTKLVTKNSNNELVFSVGDGWYKGNLGFDGGQTNIYGDKKSILAELHVTYTDNSEQVISTDSSWLTTEGKIIKSSIYYGEDIDDTKDILDWSSVVILNKSTSIVRDRLSLPIMKKEVLKVKEIIHTPKNEIVLDFGQNHAGWPVFINRLARGKKITLQMGEILQDGNFYNKNLRLARAAFTYISDGEEKLIRPHFTYFGFRYVKISGVTDVNKDDFESWVLYSDLKQTGFIKTNNDKVNRLFKNVIWGQKSNFMDVPTDCPQRDERLGWTGDAEIFAPTASFNMNTYEFYKKYAKDMLVEQEDNKGMLPIIVPSLKQKSTGMAIWSDAATIIPWVTYRFFDDLGVLKQNYSQMKNWVDWITQNTKTKYLWIGQMQLGDWLSLDNGANPQGKTNEDYIASIYYFVSASIVSKAARLLHYDMESDYYENLARNIKTNILNEFVTEKGRIAIDTQTALVLALHFGLVHDYQKSQVVADLVKKVKDDNKHLQTGFVGTPFLLSVLSNNNQHHLAMDIFMQEDCPSWLYEVNMGATTIWERWNSVLPDGKMNPEGMNSLNHYSFGAVMMWMYQCVVGLNQFDAGFKEIYFAPKFDCRLKDIYSEFDSTYGKIKVEYHLETNEKHLIRMNLVIPFGVKMKVKLPRSAKYLINGKEKIGIVKLEYGKYDISYIPTKSYLNYYDLNSKLVDILDNNDLVKRIDQIDEKILQKVKRMGNTRSIFINKKIDELLDFEEISQEEKNQLVDILHKTIFIKLNLF
# B4: 1053 (protein, listed as Solibacter usitatus)
# chain: MKRAALLILLAGTLFGAASVRPQQLRCEYRVNPQGIDVKDPRLSWILAPVNPKGRGLTQSAYRILVSSSEAALRGNSGDLWDSGKIVSAESTQVAYQGKPLNSGTAAFWKVQVWDQDGQPSDWSAPAQWSMGLLRAEDWKGRWIGRDEAGVYKDSASDYQLLERARWIWDAGNAQAGAPVGNRFFRAAFTVPAGRKVTRALSVIGADNTADVYLNGEPIAVESKLPLPHAVDITHLVRPGENVIAVRATHSRADRPAGLIGGVRVEFASGDPVLLQTSNQWRTVAKPDPGWENPGFLDAAWQASKDLGAFGMAPWEGVGFLAQHRLPGRLLRKEFALEKKLRRATVYYSGLGLSELYLNGAKVGDHVLSPGLTDYDKHVLYVTFDVTRQLVQGKNAIGLMLGNGRYYAPRNDVPIKTRDFGYPKALVQLDLEFEDGSRANVVSDETWKYSADGPIRANNEYDGEEYDARREIAGWNKAGFDDAGWEAAKIVGASSGAVVAQMAEPLRVTETVKPLGVKKLRPGVFVFDMGQNLVGWCRLRVTGPKGTQVKLRHSETLKDDGSLYVDNLRSAKAEDIYTLKGVGAEVYEPRFTYHGFRYVEVTGFPGEPSASALDARVVHDDMERAGEFTSSSGLLNKIHHNMFWGIRGNYRSIPTDCPQRDERQGWLGDRGQVSRSESYMFDVAGFYSKWMTDLEDSQRPSGSIPDVSPNYWPLYNDDLTWPGTIIFIHGMLYDQYGDKRVLARGYPAMKKWMDYEKTFVKDGLISKDQYADWCVPPEDPKLIHSQDPRRVTDKTLIATSYYYQFLRTMSRYARILDRPTDAADFDKQADQVQDTFQRRFFKLESGMYDNGTQTSSILPLYFGMIPADFRPAVVQTLVRNIELQSNGHVGTGLVGAQWLMRTLSDAGYADLAYKIATQKTYPGWGYMVEQGATTIWELWNGNTADPAMNSGNHVMQIGDLAVWMYEYLAGIRTDPEKPGFRHAVIRPYPAGDLSFVKATHKTMYGPLASSWKREKGEFMLDVTVPANTTATVWVPAKDAASVTESGKKATDVKGVKFVRSENGSAIFEVSSGAYSFKSGI
# Tests used:
# Assay type in all cases: biochemical, Quillaja saponaria
# [1] = Experiment 6-3: screening of rhamnosidases for derhamnosylation of saponins in crude bark extract (80%), relative % of Left, Middle and Right Peak by UV HPLC; conditions: CBE 80%, pH 7.4, 30 degC, 19.5 h; for Left Peak: mainly QS-17 family, negative control 27%; for Middle Peak: mainly QS-18 and desglucosyl-QS-17 family, negative control 48%; for Right Peak: mainly QS-21 family, negative control 26%
# Method: Selected variants were expressed and lysed as in the method of experiment 6-1.
# Crude bark extract (CBE) solution was adjusted to pH 7.4 by addition of NaOH (2M). 20 uL clarified lysate was transferred into fresh 96 well PCR plates. 80 uL CBE solution (pH 7.4) was added to each well of lysate to a final concentration of 80%. Plates were incubated at 30 degC with shaking for 19.5 h.
# Quenched with 100 uL MeCN+2% AcOH and shaken at room temperature for 10 mins prior to centrifugation (10 min, 4 degC) to remove particulates. Samples were analysed by UV HPLC using method of Experiment 4-4.
# Three key peaks of interest are apparent using this chromatography: Left Peak (retention time approximately 2.30-2.35 min) comprising mainly QS-17 family components; Middle Peak (retention time approximately 2.37-2.42 min) comprising mainly QS-18 family components and desglucosyl-QS-17 family components; and Right Peak (retention time approximately 2.44-2.50 min) comprising mainly QS-21 family components. Peak identity was supported by MS/MS.
# Enzyme mediated hydrolysis of the alpha-O-rhamnosylation at the C2 position of the arabinofuranose moiety of QS-17 family components leads to a decrease in Left Peak and an increase in Middle Peak due to formation of QS-18 family components. Enzyme mediated hydrolysis of the alpha-O-rhamnosylation at the C2 position of the arabinofuranose moiety of desglucosyl-QS-17 family components leads to a decrease in Middle Peak and an increase in Right Peak due to formation of QS-21 family components.
# The relative percentage of each peak was determined. A decrease in Left Peak and a concomitant increase in Middle Peak and Right Peak is observed for enzymes active under these conditions.
# [2] = Experiment 6-1: screening of rhamnosidases for derhamnosylation of saponins in treated bark extract (2%), desglucosyl-QS-17 2134 to QS-21 1988 (PAR %); conditions: TBE 2%, pH 7.5, 30 degC, 18 h; TIC peak area ratio percent, LCMS/MS; negative controls 2.719, 2.158
# [3] = Experiment 6-1: specificity of rhamnosidases towards other rhamnose residues (C3 saccharide rhamnose, C28 saccharide rhamnose); conditions: TBE 2%, pH 7.5, 30 degC, 18 h; LCMS/MS; negative controls 0.18, 0.17
# [4] = Experiment 6-1: screening of rhamnosidases for derhamnosylation of saponins in treated bark extract (2%), QS-17 2310 to QS-18 2164 (PAR %); conditions: TBE 2%, pH 7.5, 30 degC, 18 h; TIC peak area ratio percent, LCMS/MS; negative controls 3.061, 2.429
# [5] = Experiment 6-2: screening of rhamnosidases for derhamnosylation of saponins in treated bark extract (25%), relative % of Left, Middle and Right Peak by UV HPLC; conditions: TBE 25%, pH 7.4, 19.5 h; for Left Peak: mainly QS-17 family, negative control 24%; for Middle Peak: mainly QS-18 and desglucosyl-QS-17 family, negative control 50%; for Right Peak: mainly QS-21 family, negative control 26%
# [6] = Experiment 6-1: screening of rhamnosidases for derhamnosylation of saponins in treated bark extract (2%), QS-17 2296 to QS-18 2150 (PAR %); conditions: TBE 2%, pH 7.5, 30 degC, 18 h; TIC peak area ratio percent of rhamnosylated starting saponin to derhamnosylated product, LCMS/MS; negative controls 4.876, 5.225
Molecule,Left Peak [1] [%],Middle Peak [1] [%],Right Peak [1] [%],Peak75 (PAR %) [2] [%],ratio PP/QS-21 [3],Peak57 (PAR %) [4] [%],Left Peak [5] [%],Middle Peak [5] [%],Right Peak [5] [%],QS-17 (PAR %) [6] [%]
B1,29,43,27,0.478,0.18,0.305,19,54,26,0.516
B2,25,48,27,0.000,0.16,0.000,15,55,30,0.507
B3,25,48,27,0.683,0.18,0.000,16,57,27,0.492
B4,26,48,26,0.944,0.18,0.550,20,54,26,1.127
